# Source: US20180280504A1, “GLYCAN-INTERACTING COMPOUNDS AND METHODS OF USE” (SIAMAB THERAPEUTICS, INC., priority 2014, published 2018)
# B1: 7G9: anti-STn mouse monoclonal, IgG2b κ, from mouse #4407; VH SEQ ID NO: 12, VL SEQ ID NO: 9 (antibody, V domains shown)
# VH: QVQLKESGPGLVAPSQNLSITCTVSGFSLTSYGVNWVRQPPGKGLEWLGVIWGDGSTNYHSALISRLIISKENSKSQVFLKLNSLQTNDTATYYCTKGFVYWGQGTLVTVSA
# VL: QIVLTQSPAIMSASPGEKVTMTCSASSSVSYMHWYQQKSGTSPKRWIFDTSKLASGVPARFSGSGSGTSYSLTISSMEAEDAATYYCQQWSSNLLTFGAGTKLELK
# B2: S3F: 3F1 variable domains combined with IgG2a constant domains; heavy chain SEQ ID NO: 63, light chain SEQ ID NO: 64 (antibody)
# heavy: QVQLQQSDAELVKPGASVKISCKASGYTFTDHAIHWVKQKPEQGLDWIGYISPGNGDIKYNEKFKDKVTLTADKSSSTACMHLNSLTSEDSAVYFCKRSLLALDYWGQGTTLTVSSAKTTAPSVYPLAPVCGDTTGSSVTLGCLVKGYFPEPVTLTWNSGSLSSGVHTFPAVLQSDLYTLSSSVTVTSSTWPSQSITCNVAHPASSTKVDKKIEPRGPTIKPCPPCKCPAPNLLGGPSVFIFPPKIKDVLMISLSPIVTCVVVDVSEDDPDVQISWFVNNVEVHTAQTQTHREDYNSTLRVVSALPIQHQDWMSGKEFKCKVNNKDLPAPIERTISKPKGSVRAPQVYVLPPPEEEMTKKQVTLTCMVTDFMPEDIYVEWTNNGKTELNYKNTEPVLDSDGSYFMYSKLRVEKKNWVERNSYSCSVVHEGLHNHHTTKSFSRTPGK
# light: DIVMTQSHKFMSTSVGDRVSITCKASQDVGTNIAWYQQKPGRSPKVLIYSASTRHTGVPDRFTGSGSGTDFTLTISNVQSEDLTDYFCQQYSSFPLTFGVGTKLELKRADAAPTVSIFPPSSEQLTSGGASVVCFLNNFYPKDINVKWKIDGSERQNGVLNSWTDQDSKDSTYSMSSTLTLTKDEYERHNSYTCEATHKTSTSPIVKSFNRNEC
# Columns and labels:
# [1] = E3-STn allograft model, average weight of mice; format: in vivo, mouse
# Method: Balb/c mice were used as part of the test system. 50 female mice were inoculated with E3-STn cells to cause STn-expressing tumor formation. Mice were maintained under pathogen-free conditions with irradiated feed and autoclaved water.
# The average weight of mice in each treatment group was also determined on days 1, 4, 6, 8, 11, 13, 15, 18, 20, 22, 26, 27, 29, 32, 34, 36, 39 and 41 following the first administration of each test article (see the following Table). The percent gain or loss over initial weight values is listed in parentheses.
# MDA-MD-231 STn− cells = assay: Fluorescence microscopy of ALEXA FLUOR 488-S3F binding and internalization, STn− cells; format: cell-based, human
# Method: To analyze the internalization of antibodies by fluorescence microscopy, the following procedure was carried out. MDA-MD-231 STn− cells and MDA-MD-231 STn+ cells were cultured in Eagles minimum essential medium containing 10% fetal calf serum, 100 μg/ml penicillin, 100 UI/ml streptomycin, 45 μg/ml gentamycin, as well as 1 mg/ml G418 for STn+ cells. Cells were sub-cultured by treatment with Accutase buffer and seeded in microscope chamber slides at 10,000 cells/chamber in the case of STn− cells and 20,000 cells/chamber in the case of STn+ cells. All cells were cultured overnight at 37° C. Cells were subsequently incubated with either 1.5, 5 or 10 μg/ml S3F conjugated with ALEXA FLUOR® 488 dye (Thermo Fisher Scientific, Pittsburgh, Pa.) in complete media at 4° C. for 1 hour. Cells were then washed with ice-cold PBS in order to remove antibodies that were not bound to the cell surface. Complete media was then administered to each chamber and the cells were incubated at 37° C. for either 0, 15, 30 or 60 minutes in order to allow internalization of any surface-bound antibodies.
# Following each time point, cells were washed twice with PBS in order to remove unbound antibodies. […] Cells were visualized the following day by analysis on a Nikon Eclipse Ti fluorescence microscope.
# [2] = Immunohistochemical staining of normal and tumor tissues (TMA); conditions: tissue microarray slides
# Method: The procedure for IHC staining includes the following steps: a). obtain tissue samples and prepare specimen slides; b). prepare tissue samples for IHC staining; i. perform antigen retrieval with Diva antigen retrieval solution for 30 minutes at 95° C.; or treat slides with 250 mU/mL neuraminidase in 50 mM sodium acetate, pH 5.5 for 2.5 hours at 37° C.; ii. rinse all treated slides twice with Tris-buffered saline auto-wash (TBS-AW); iii. apply Sniper protein block to all slides for 20 minutes to reduce non-specific binding and rinse twice in TBS-AW; c). perform antibody staining; i. incubate the pretreated slides with the primary antibody. For example, anti-STn antibody S3F is applied (10 or 30 ug/mL) for 60 minutes; ii. rinse twice in TBS-AW; iii. block endogenous peroxidase with peroxidase 1 for 10 minutes; iv. rinse twice with TBS-AW; v. incubate the slides with biotinylated goat anti-mouse IgG in DaVinci Green at 1:500 dilution for 30 minutes; vi. rinse twice with TBS-AW. d). develop the staining; i. add ABC Elite and incubate the slides for 30 minutes; ii. rinse twice with TBS-AW; iii. apply Sigma Fast DAB solution for 5 minutes followed by a rinse in distilled water; iv. counterstain and coverslip the slides for analysis. […]
# [3] = MDA-MB-231-STn xenograft model, percent body weight change; format: in vivo, mouse; conditions: 5 mg/kg i.p. once weekly
# Description: To evaluate antibody drug conjugates (ADCs) as single agents in an MDA-MB-231-STn Human Breast Tumor Xenograft model, 40 ICR SCID female mice age range 6-8 weeks were randomly separated into four separate groups, one vehicle control and three ADC treatments, then maintained individually with food/water ad libitum (see the following Table).
# Animals were inoculated in the subcutaneous right flank with 5×10^6 breast tumor cells (MDA-MB-231-STn) in matrigel, mean tumor size was 175-225 mm^3 at study initiation. Animals were given either vehicle or antibody drug conjugates (5 mg/kg) by intraperitoneal injection once weekly. Tumor volume and percent body weight change were determined once weekly until study termination. The study was terminated when the tumor in the vehicle control animal reached a mean tumor weight ≥1500 mm^3. SE refers to “standard error.”
molecule,measurement,setting,value
B1,Average Weight,[1]; day 1 of study,17.1 g
same,Average Weight,[1]; day 4 of study,17.3 g
same,percent gain or loss over initial weight,[1]; day 4 of study,(1.7) %
same,Average Weight,[1]; day 6 of study,18.2 g
same,percent gain or loss over initial weight,[1]; day 6 of study,(6.9) %
same,Average Weight,[1]; day 8 of study,18.2 g
same,percent gain or loss over initial weight,[1]; day 8 of study,(6.5) %
same,Average Weight,[1]; day 11 of study,18.3 g
same,percent gain or loss over initial weight,[1]; day 11 of study,(7.3) %
same,Average Weight,[1]; day 13 of study,18.6 g
same,percent gain or loss over initial weight,[1]; day 13 of study,(8.9) %
same,Average Weight,[1]; day 15 of study,18.7 g
same,percent gain or loss over initial weight,[1]; day 15 of study,(9.9) %
same,Average Weight,[1]; day 18 of study,18.6 g
same,percent gain or loss over initial weight,[1]; day 18 of study,(9.0) %
same,Average Weight,[1]; day 20 of study,18.9 g
same,percent gain or loss over initial weight,[1]; day 20 of study,(10.8) %
same,Average Weight,[1]; day 22 of study,18.9 g
same,percent gain or loss over initial weight,[1]; day 22 of study,(11.1) %
same,Average Weight,[1]; day 26 of study,19.0 g
same,percent gain or loss over initial weight,[1]; day 26 of study,(11.7) %
same,Average Weight,[1]; day 27 of study,19.1 g
same,percent gain or loss over initial weight,[1]; day 27 of study,(11.9) %
same,Average Weight,[1]; day 29 of study,19.4 g
same,percent gain or loss over initial weight,[1]; day 29 of study,(14.0) %
same,Average Weight,[1]; day 32 of study,19.2 g
same,percent gain or loss over initial weight,[1]; day 32 of study,(12.6) %
same,Average Weight,[1]; day 34 of study,19.5 g
same,percent gain or loss over initial weight,[1]; day 34 of study,(14.2) %
same,Average Weight,[1]; day 36 of study,19.6 g
same,percent gain or loss over initial weight,[1]; day 36 of study,(14.8) %
same,Average Weight,[1]; day 39 of study,20.2 g
same,percent gain or loss over initial weight,[1]; day 39 of study,(18.7) %
same,Average Weight,[1]; day 41 of study,20.3 g
same,percent gain or loss over initial weight,[1]; day 41 of study,(19.2) %
same,percent gain in weight as compared to Paclitaxel and vehicle control,[1]; over the course of treatment,higher percent gain in weight
B2,internalization by STn− cells,"MDA-MD-231 STn− cells; 37° C. 15-60 min, acid wash",not efficiently internalized by STn− cells
same,binding to the surface of STn− cells,"MDA-MD-231 STn− cells; 488-S3F conjugate at 1.5, 5, 10 μg/ml, 4° C.",does not bind the surface of STn− cells
same,"IHC staining pattern, cancerous tissues",[2],STn was present in most cancerous tissues
same,"IHC staining pattern, normal tissues",[2],STn expression was rare in normal tissues
same,body weight at study termination,[3],overall increase in body weight
same,Percent Body Weight Change,[3]; study day 1,0%
same,Percent Body Weight Change,[3]; study day 4,−0.01%
same,Percent Body Weight Change,[3]; study day 8,−1.29%
same,Percent Body Weight Change,[3]; study day 10,−1.36%
same,Percent Body Weight Change,[3]; study day 15,−1.09%
same,Percent Body Weight Change,[3]; study day 18,−0.51%
same,Percent Body Weight Change,[3]; study day 23,1.49%
same,Percent Body Weight Change,[3]; study day 25,2.17%
